Earlier results as cited in patent US7514409B2, “VLA-4 antagonists” (Merck & Co., Inc., priority 2004, dated 2009).

Target: T1, VLA-4 (Homo sapiens, UniProt P13612)
T1 construct: host or cells: circulating VLA-4-bearing leukocytes of trial subjects (in vivo)
Conditions: early clinical trials

In the case of “natalizumab: humanized monoclonal antibody against α4”, the “lymphocytosis (a surrogate marker for blockade of VLA-4 function)” value is listed as “observed” and the receptor occupancy is listed as over 80%.
